In PMC9443353 one finds binding signal (ratio ZIKV NS1/DENV2 NS1 bound) and binding signal (ratio ZIKV NS1/DENV4 NS1 bound) data, which are given here for one sequence.

Series [1] deals with T1, DENV2 NS1 (Dengue virus serotype 2) (UniProt Q9WDA6).
T1 sequence: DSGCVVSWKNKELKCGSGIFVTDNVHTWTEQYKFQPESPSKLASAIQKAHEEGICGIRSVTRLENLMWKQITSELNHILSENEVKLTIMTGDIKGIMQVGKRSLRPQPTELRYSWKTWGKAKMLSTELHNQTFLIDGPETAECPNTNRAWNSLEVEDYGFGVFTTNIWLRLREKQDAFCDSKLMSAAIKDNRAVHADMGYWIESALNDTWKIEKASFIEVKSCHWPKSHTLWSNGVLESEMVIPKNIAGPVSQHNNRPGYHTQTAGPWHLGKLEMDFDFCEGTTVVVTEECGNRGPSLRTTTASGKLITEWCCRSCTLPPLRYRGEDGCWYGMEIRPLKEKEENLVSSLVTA
Briefly: filter binding with qPCR. Background: Real-time PCR tracks product formation cycle by cycle.

Series [2] concerns the target T2, DENV4 NS1 (Dengue virus serotype 4) (UniProt Q2YHF0).
T2 sequence: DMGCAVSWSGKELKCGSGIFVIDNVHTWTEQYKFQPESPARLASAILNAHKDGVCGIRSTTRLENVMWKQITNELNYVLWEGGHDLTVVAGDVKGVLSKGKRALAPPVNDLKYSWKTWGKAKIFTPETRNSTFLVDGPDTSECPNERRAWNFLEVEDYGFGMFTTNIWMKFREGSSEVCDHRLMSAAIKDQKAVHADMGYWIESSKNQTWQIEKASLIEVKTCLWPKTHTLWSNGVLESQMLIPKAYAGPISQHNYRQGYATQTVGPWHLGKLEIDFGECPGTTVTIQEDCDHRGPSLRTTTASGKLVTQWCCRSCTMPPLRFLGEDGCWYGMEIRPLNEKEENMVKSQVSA
Briefly: filter binding with qPCR. The note with it: ELONA: borate buffer (60 mM in selection), 37 °C, 30 min, pH not stated; specificity: selection buffer, filtration, qPCR; FET: human serum as gate electrolyte ….

In the case of “CTTCTGCCCGCCTCCTTCCGGGCCCCGGGGGGTGTCCAGGCCCATGCGTCGTCCGCGGGGAGACGAGATAGGCGGACACT [ZIKV60]”, the binding signal (ratio ZIKV NS1/DENV2 NS1 bound) in series [1] was determined as 14.8. Further, the binding signal (ratio ZIKV NS1/DENV4 NS1 bound) in series [2] came to 14.8.
